Experimental data published in patent US20240116985A1 (published 2024).
Starred links: 1 amine or outer side, 2 acyl side, 3 side chain; linkers in the order of their positions; H or OH if unused. Positions of bridges follow the written chain, without caps; N, C: chain ends. Non-standard residues stand in square brackets, D forms with d. Primed or numbered codes have the meaning given here. PyrS2″ = (S)-3-amino-1-((pent-4-en-1-yloxy)carbonyl)pyrrolidine-3-carboxylic acid (stapling residue), C=CCCCOC(=O)N1CC[C@@](N[*:1])(C(=O)[*:2])C1; RdN(3) = (R)-4-(((allyloxy)carbonyl)(methyl)amino)-2-amino-2-methylbutanoic acid, stapling residue, C=CCOC(=O)N(C)CC[C@@](C)(N[*:1])C(=O)[*:2]; RdN″ = (R)-4-(((allyloxy)carbonyl)(methyl)amino)-2-amino-2-methylbutanoic acid (stapling residue), C=CCOC(=O)N(C)CC[C@@](C)(N[*:1])C(=O)[*:2]; B5(4) = 2,2-bis(4-pentenyl)glycine = 2-amino-2-(pent-4-en-1-yl)hept-6-enoic acid (stitching residue), C=CCCCC(CCCC=C)(N[*:1])C(=O)[*:2]; B5(6) = 2-amino-2-(pent-4-en-1-yl)hept-6-enoic acid (bis(4-pentenyl)glycine), stitching residue, C=CCCCC(CCCC=C)(N[*:1])C(=O)[*:2]; TfeGA = (S)-2-amino-3-((carboxymethyl)(2,2,2-trifluoroethyl)amino)propanoic acid, O=C([C@H](CN(CC(=O)[*:3])CC(F)(F)F)N[*:1])[*:2]; PyrS2 = (S)-3-amino-1-((pent-4-en-1-yloxy)carbonyl)pyrrolidine-3-carboxylic acid, C=CCCCOC(=O)N1CC[C@@](N[*:1])(C(=O)[*:2])C1; B5(12) = 2-amino-2-(pent-4-en-1-yl)hept-6-enoic acid (two olefin side chains), C=CCCCC(CCCC=C)(N[*:1])C(=O)[*:2]; 2COOHF = (S)-2-(2-amino-2-carboxyethyl)benzoic acid, O=C([C@H](Cc1ccccc1C(=O)[*:3])N[*:1])[*:2]; B5(3) = 2,2-bis(4-pentenyl)glycine (stitching residue), C=CCCCC(CCCC=C)(N[*:1])C(=O)[*:2]; Qui = (S)-2-amino-3-(quinolin-2-yl)propanoic acid, O=C([C@H](Cc1ccc2ccccc2n1)N[*:1])[*:2]; Phe(3-COOH) = N[C@@H](Cc1cccc(C(=O)O)c1)C(=O)O; S7 = C[C@@](CCCCCC=[*:3])(N[*:1])C(=O)[*:2]; Bta = N[C@@H](Cc1csc2ccccc12)C(=O)O; αAllylPro = C=CC[C@@]1(C(=O)O)CCCN1; tBuAla = CC(C)(C)C[C@H](N)C(=O)O; 3Thi = N[C@@H](Cc1ccsc1)C(=O)O; Cit = NC(=O)NCCC[C@H](N)C(=O)O; S8 = C=CCCCCCC[C@](C)(N)C(=O)O; PyrS2(4) = not defined here; TfeGA″ = not defined here; hSer = N[C@@H](CCO)C(=O)O

T1: full-length beta-Catenin (Uniprot ID P35222) (Homo sapiens (Human), UniProt P35222 2-781)
T1 construct: the AlphaScreen assay uses a Histidine (Nickel Chelate) detection kit, so a His tag is likely there; also called B-Catenin; bCat
T1 sequence: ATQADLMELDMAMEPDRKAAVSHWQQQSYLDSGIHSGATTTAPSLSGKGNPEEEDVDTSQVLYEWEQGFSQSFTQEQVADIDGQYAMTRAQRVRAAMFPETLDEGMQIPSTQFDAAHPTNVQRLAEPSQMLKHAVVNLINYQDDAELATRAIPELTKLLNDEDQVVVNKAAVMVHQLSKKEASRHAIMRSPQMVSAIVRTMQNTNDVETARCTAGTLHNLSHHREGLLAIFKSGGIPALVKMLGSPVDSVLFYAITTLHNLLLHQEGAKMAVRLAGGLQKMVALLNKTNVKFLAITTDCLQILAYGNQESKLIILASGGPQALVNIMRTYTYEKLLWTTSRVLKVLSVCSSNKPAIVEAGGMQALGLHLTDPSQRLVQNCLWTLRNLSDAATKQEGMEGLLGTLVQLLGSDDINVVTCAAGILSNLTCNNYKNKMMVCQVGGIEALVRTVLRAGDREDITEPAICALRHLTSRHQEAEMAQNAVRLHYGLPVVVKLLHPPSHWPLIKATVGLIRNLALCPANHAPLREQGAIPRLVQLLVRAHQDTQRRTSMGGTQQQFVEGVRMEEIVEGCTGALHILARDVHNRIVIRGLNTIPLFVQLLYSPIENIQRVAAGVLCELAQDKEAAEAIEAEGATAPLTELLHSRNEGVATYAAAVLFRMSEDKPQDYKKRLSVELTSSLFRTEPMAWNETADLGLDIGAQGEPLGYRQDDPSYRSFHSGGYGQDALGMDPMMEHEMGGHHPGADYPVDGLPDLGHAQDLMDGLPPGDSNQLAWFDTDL

T2: B-cat-Halo (UniProt P35222 1-781)
T2 sequence (looked up): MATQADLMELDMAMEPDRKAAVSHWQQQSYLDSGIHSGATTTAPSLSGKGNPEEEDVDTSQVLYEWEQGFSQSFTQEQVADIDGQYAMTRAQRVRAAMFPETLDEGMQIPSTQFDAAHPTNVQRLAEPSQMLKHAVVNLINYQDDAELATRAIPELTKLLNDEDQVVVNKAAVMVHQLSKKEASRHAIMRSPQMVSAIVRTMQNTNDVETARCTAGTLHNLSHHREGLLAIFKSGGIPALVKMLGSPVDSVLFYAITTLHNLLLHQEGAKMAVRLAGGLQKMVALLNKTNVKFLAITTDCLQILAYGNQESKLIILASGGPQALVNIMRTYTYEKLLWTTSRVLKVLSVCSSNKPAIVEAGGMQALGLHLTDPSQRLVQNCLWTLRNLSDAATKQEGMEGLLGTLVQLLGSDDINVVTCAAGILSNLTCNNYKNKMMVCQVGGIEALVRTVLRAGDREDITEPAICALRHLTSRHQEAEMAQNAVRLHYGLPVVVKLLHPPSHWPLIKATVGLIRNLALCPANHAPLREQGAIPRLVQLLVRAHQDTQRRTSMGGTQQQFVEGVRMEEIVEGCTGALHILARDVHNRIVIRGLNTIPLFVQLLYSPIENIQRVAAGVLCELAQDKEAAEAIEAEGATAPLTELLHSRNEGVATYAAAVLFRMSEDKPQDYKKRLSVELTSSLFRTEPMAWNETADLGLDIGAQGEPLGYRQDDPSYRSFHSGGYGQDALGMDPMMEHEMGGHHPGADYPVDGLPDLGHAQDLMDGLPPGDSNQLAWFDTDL

T3: full-length beta-Catenin (Uniprot ID P35222) (Homo sapiens (Human), UniProt P35222 2-781)
T3 construct: No tag is stated for the FP assay; also called bCat; B-Catenin
T3 sequence: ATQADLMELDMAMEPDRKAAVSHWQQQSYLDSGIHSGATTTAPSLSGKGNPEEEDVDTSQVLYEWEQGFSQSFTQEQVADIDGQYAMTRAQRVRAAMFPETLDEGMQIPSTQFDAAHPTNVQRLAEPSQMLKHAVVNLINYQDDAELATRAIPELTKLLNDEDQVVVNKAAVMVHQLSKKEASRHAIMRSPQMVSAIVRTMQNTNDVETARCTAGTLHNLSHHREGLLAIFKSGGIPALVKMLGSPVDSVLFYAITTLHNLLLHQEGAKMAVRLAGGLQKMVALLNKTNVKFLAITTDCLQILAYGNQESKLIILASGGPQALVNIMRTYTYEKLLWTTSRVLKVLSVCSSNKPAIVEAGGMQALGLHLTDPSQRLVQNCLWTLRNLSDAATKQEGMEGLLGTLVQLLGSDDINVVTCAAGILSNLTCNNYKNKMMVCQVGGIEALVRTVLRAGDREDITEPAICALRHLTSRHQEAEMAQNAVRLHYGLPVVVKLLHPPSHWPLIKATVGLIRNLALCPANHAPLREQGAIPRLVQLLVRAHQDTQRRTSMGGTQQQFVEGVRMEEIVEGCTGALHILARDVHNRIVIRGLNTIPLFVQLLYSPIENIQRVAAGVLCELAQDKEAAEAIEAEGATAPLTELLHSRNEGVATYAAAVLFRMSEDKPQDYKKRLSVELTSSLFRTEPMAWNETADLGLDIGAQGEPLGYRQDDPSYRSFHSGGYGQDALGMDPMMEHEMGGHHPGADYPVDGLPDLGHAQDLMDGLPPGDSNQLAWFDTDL


Experiments:
[1] = molecular target: T1, full-length beta-Catenin (Uniprot ID …); assay: AlphaScreen competition; full-length beta-catenin with biotin-TCF4(10-53) probe as competitor
Description: Equal volume of the titrated peptide was added to the plate and incubated for 15 minutes at 20° C. Then 4 uL of donor and 4 uL acceptor beads at 10 ug/mL were added to the plate, for a 16 uL reaction pool and protected from light for 60 minutes at 20° C. prior to read. Reads were performed on a CLARIOstar plate reader (BMG Labtech) in duplicate, and data were fitted to a 1:1 binding model with hill slope using an in-house script. All provided concentrations are final concentrations.

[2] = molecular target: T1, full-length beta-Catenin (Uniprot ID …); assay: fluorescence polarization competition; full-length beta-catenin with 5FAM-TCF4(10-53) probe as competitor
Description: (§1) The plate was incubated protected from light for 60 minutes at 20° C. prior to read. Reads were performed on a CLARIOstar plate reader (BMG Labtech) in duplicate, and data were fitted to a 1:1 binding model with hill slope using an in-house script. All provided concentrations are final concentrations.

B-cat-Halo = molecular target: T2, B-cat-Halo; assay: cell-based or functional assay
[3] = molecular target: T3, full-length beta-Catenin (Uniprot ID …); assay: fluorescence polarization competition; full-length beta-catenin with 5FAM-TCF4(10-53) probe as competitor
Description: as §1

| Binder | EC50 [1] | EC50 [2] | NanoBRET Abs IC50 (B-cat-Halo) | other results |
| --- | --- | --- | --- | --- |
| ADIXDEAAFAXFWA (not fully specified; as printed: Ac-Ala-Asp-Ile-RdN-Asp-Glu-Ala-Ala-Phe-Ala-S7-Phe-Trp-Ala-NH2; N-terminal acetyl, C-terminal amide; RdN(4), S7(11); staple RdN-S7 by olefin metathesis, stapled peptide) [I-155] | 0.734 µM | 5 µM |  |  |
| Ac-[αAllylPro]DA[B5(4)]DEAAFV[S8]F[Qui]Q-NH2 (staple 1-4, 4-11, stapled peptide composition) [I-143] | 0.733 µM | 2.27 µM |  |  |
| Ac-[αAllylPro]DA[B5(6)][hSer]EAAFQ[S8]F[Bta]Q-NH2 (staple 1-4, 4-11; not fully specified; printed as Ac-PL3-Asp-Ala-B5-Hse-Glu-Ala-Ala-Phe-Gln-S8-Phe-BztA-Gln-NH2, Stapled peptide; this is the third eluting HPLC peak (staple isomer composition)) [I-498] |  |  |  | IC50 [3]: 5 µM |
| XDAXDXAAFVXFWQ (not fully specified; as printed: Ac-PL3-Asp-Ala-B5-Asp-EtGA-Ala-Ala-Phe-Val-S8-Phe-Trp-Gln-NH2; N-terminal acetyl, C-terminal amide; PL3(1), B5(4), EtGA(6), S8(11); staples PL3-B5 and B5-S8 by olefin metathesis, stapled peptide) [I-173] |  | 3.12 µM |  |  |
| ADIXDEAAFAXFWA (not fully specified; as printed: Ac-Ala-Asp-Ile-RdN-Asp-Glu-Ala-Ala-Phe-Ala-S7-Phe-Trp-Ala-NH2; N-terminal acetyl, C-terminal amide; RdN(4), S7(11); staple RdN-S7 by olefin metathesis, stapled peptide) [I-154] | 0.828 µM | 5 µM |  |  |
| Ac-ADI[RdN(3)]DEAAFQ[S7]FWA-NH2 (staple 4-11, stapled peptide composition) [I-153] | 0.153 µM | 2.14 µM |  |  |
| Ac-ADI[RdN″]DEAAFA[S7]FWH-NH2 (staple 4-11, stapled peptide composition) [I-152] | 0.752 µM | 5 µM |  |  |

The next lines start with results.

| EC50 [1] | EC50 [2] | NanoBRET Abs IC50 (B-cat-Halo) | Binder | other results |
| --- | --- | --- | --- | --- |
|  |  | 17.4 µM | Ac-[αAllylPro]D[tBuAla][B5(3)]DQAAFN[PyrS2″][3Thi][Bta]Q-NH2 (staple 1-4, 4-11) [I-838] |  |
|  |  | 2.8 µM | Ac-[αAllylPro]D[tBuAla][B5(3)]D[Phe(3-COOH)]AAFF[PyrS2][3Thi][Bta]Q-NH2 (staple 1-4, 4-11) [I-852] |  |
|  |  | 6.8 µM | Ac-[αAllylPro]D[tBuAla][B5(12)]DNAAFL[PyrS2][3Thi][Bta]Q-NH2 (staple 1-4, 4-11) [I-856] |  |
|  |  | 3.6 µM | Ac-[αAllylPro]D[tBuAla][B5(12)]D[2COOHF]AAFL[PyrS2][3Thi][Bta]Q-NH2 (staple 1-4, 4-11) [I-854] |  |
|  |  | > 20 µM | Ac-[αAllylPro]D[tBuAla][B5(3)]DLAAFN[PyrS2(4)][3Thi][Bta]H-NH2 (staple 1-4, 4-11; reading uncertain) [I-847] |  |
|  |  | 7 µM | Ac-[αAllylPro]D[tBuAla][B5(3)]D[TfeGA″]AAFF[PyrS2(4)][3Thi][Bta]Q-NH2 (staple 1-4, 4-11; reading uncertain) [I-848] |  |
|  |  | 22.3 µM | Ac-[αAllylPro]D[tBuAla][B5(3)]D[Cit]AAFN[PyrS2″][3Thi][Bta]Q-NH2 (staple 1-4, 4-11) [I-840] |  |
|  |  | 3.6 µM | Ac-[αAllylPro]D[tBuAla][B5(3)]D[TfeGA]AAFL[PyrS2][3Thi][Bta]Q-NH2 (staple 1-4, 4-11) [I-849] |  |
